Molecular target: PD-1 Ligand (PD-L1) (UniProt Q9NZQ7)
Sequence (Q9NZQ7 19-290): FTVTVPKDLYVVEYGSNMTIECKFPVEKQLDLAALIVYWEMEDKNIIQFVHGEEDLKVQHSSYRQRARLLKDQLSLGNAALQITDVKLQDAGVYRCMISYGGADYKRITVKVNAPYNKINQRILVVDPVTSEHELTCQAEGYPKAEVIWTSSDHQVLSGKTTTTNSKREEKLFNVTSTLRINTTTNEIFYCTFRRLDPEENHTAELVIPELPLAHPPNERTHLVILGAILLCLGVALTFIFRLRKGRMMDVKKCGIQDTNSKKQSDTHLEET

Q: Which “PD-L1 K63-linked poly-ubiquitination (gel images)” value does the source give for “WW domain containing E3 ubiquitin protein ligase 1 (WWP1)” here?
A: WWP1 triggers PD-L1 K63-linked poly-ubiquitination

Q: What about the “PD-L1 ubiquitination (gel images)” value of the same substance?
A: WWP1 triggers PD-L1 ubiquitination in a catalytic dependent manner

— patent US20210002649
